From patent US20250011363A1, “OPTIMIZED SHORTENED PEPTIDE THAT BINDS TO ACETYLCHOLINE RECEPTOR, AND USE THEREOF” (SKINMED CO., LTD., priority 2021, published 2025)

The binders below were run against acetylcholine receptor (assay: SPR, AchR immobilized on chip).
KWRQKR [6mer-2-233] gave a Binding affinity (RU) of 190 RU.

The binders below were run against acetylcholine receptor (assay: SPR, AchR immobilized on CM5 chip, peptide 10 µM).
In the case of KGISKK [6mer-2-231], the Binding affinity (RU) is reported as 144 RU.
KQFTRK [6mer-2-232] was tested, and the Binding affinity (RU) was 135 RU.
KWRQKR [6mer-2-233] showed a Binding affinity (RU) of 190 RU.
RSQTKR [6mer-2-234] gave a Binding affinity (RU) of 142 RU.
In the case of KLVRKK [6mer-2-235], the Binding affinity (RU) is reported as 136 RU.
In the case of KWQQKK [6mer-2-236], the Binding affinity (RU) is reported as 131 RU.
RLVYKR [6mer-2-237] showed a Binding affinity (RU) of 123 RU.
RRRRRK [6mer-2-238] gave a Binding affinity (RU) of 142 RU.
With RGQYKK [6mer-2-239] the Binding affinity (RU) was 125 RU.
RRRCRK [6mer-2-240] was tested, and the Binding affinity (RU) was 142 RU.
Binder KQLTKR [6mer-2-241] has a Binding affinity (RU) of 135 RU.
KSQRRR [6mer-2-242] was tested, and the Binding affinity (RU) was 135 RU.
With KRVLKR [6mer-2-243] the Binding affinity (RU) was 148 RU.
Binder RRFSKR [6mer-2-244] has a Binding affinity (RU) of 139 RU.
With RSLSKR [6mer-2-245] the Binding affinity (RU) was 135 RU.
Work on KWISKK [6mer-2-246] yielded a Binding affinity (RU) of 123 RU.
With KGYQKK [6mer-2-247] the Binding affinity (RU) was 146 RU.
With RSYTRR [6mer-2-248] the Binding affinity (RU) was 154 RU.
RGLRKR [6mer-2-249] gave a Binding affinity (RU) of 136 RU.
KRRRKK [6mer-2-250] gave a Binding affinity (RU) of 145 RU.
KSQTKR [6mer-2-251] showed a Binding affinity (RU) of 142 RU.
For KVFRKK [6mer-2-252], the Binding affinity (RU) was 148 RU.
KLRSRR [6mer-2-253] showed a Binding affinity (RU) of 145 RU.
Binder KRIQRR [6mer-2-254] has a Binding affinity (RU) of 148 RU.
RLRRKK [6mer-2-255] was tested, and the Binding affinity (RU) was 139 RU.
With KSQQKR [6mer-2-256] the Binding affinity (RU) was 142 RU.
With KRFCRK [6mer-2-257] the Binding affinity (RU) was 144 RU.
KRIYRR [6mer-2-258] was tested, and the Binding affinity (RU) was 125 RU.
With RVQSKR [6mer-2-259] the Binding affinity (RU) was 128 RU.
RRFCKR [6mer-2-260] was tested, and the Binding affinity (RU) was 142 RU.
Work on RWYTKK [6mer-2-261] yielded a Binding affinity (RU) of 121 RU.
KWILKR [6mer-2-262] was tested, and the Binding affinity (RU) was 142 RU.
RRICKR [6mer-2-263] showed a Binding affinity (RU) of 145 RU.
KSQLKR [6mer-2-264] gave a Binding affinity (RU) of 127 RU.
For RRQTRK [6mer-2-265], the Binding affinity (RU) was 135 RU.
For RWQTKK [6mer-2-266], the Binding affinity (RU) was 131 RU.
Binder KLYSRR [6mer-2-267] has a Binding affinity (RU) of 141 RU.
RQICKK [6mer-2-268] was tested, and the Binding affinity (RU) was 139 RU.

These binders were tested against acetylcholine receptor (assay: SPR, receptor immobilised on chip, peptide at 10 µM).
Binder RSFSKR [6mer-2-468] has a Binding affinity of 133 RU.
RLRTKK [6mer-2-469] showed a Binding affinity of 153 RU.
RLRRRK [6mer-2-470] showed a Binding affinity of 153 RU.
For KWISRR [6mer-2-471], the Binding affinity was 136 RU.
In the case of RSRLRR [6mer-2-472], the Binding affinity is reported as 148 RU.
Binder RGRLRK [6mer-2-473] has a Binding affinity of 131 RU.
For RWQQRR [6mer-2-474], the Binding affinity was 128 RU.
With KRFCRR [6mer-2-475] the Binding affinity was 139 RU.
In the case of KGIRKK [6mer-2-476], the Binding affinity is reported as 148 RU.
Work on RSRTRR [6mer-2-477] yielded a Binding affinity of 135 RU.
Binder KWYTRK [6mer-2-478] has a Binding affinity of 145 RU.
KWRLKK [6mer-2-479] showed a Binding affinity of 154 RU.
RRFTKK [6mer-2-480] gave a Binding affinity of 147 RU.
With RQRYKK [6mer-2-481] the Binding affinity was 131 RU.
In the case of KGQTRR [6mer-2-482], the Binding affinity is reported as 154 RU.
Binder RRYLKK [6mer-2-483] has a Binding affinity of 121 RU.
With RWYTKR [6mer-2-484] the Binding affinity was 148 RU.
In the case of RQIQKR [6mer-2-485], the Binding affinity is reported as 148 RU.
With KQQSKK [6mer-2-486] the Binding affinity was 121 RU.
For KSYTKR [6mer-2-487], the Binding affinity was 121 RU.
In the case of KVYRRK [6mer-2-488], the Binding affinity is reported as 146 RU.
In the case of RVISKK [6mer-2-489], the Binding affinity is reported as 142 RU.
With RRYQKK [6mer-2-490] the Binding affinity was 145 RU.
Work on KRICKR [6mer-2-491] yielded a Binding affinity of 135 RU.
With RLIQKK [6mer-2-492] the Binding affinity was 148 RU.
KGVRRK [6mer-2-493] was tested, and the Binding affinity was 123 RU.
KGLLRR [6mer-2-494] was tested, and the Binding affinity was 144 RU.
KLLCKK [6mer-2-495] was tested, and the Binding affinity was 121 RU.
In the case of RVRYRK [6mer-2-496], the Binding affinity is reported as 144 RU.
In the case of KSYTRR [6mer-2-497], the Binding affinity is reported as 148 RU.
For KGLCRR [6mer-2-498], the Binding affinity was 127 RU.
For RLFTKR [6mer-2-499], the Binding affinity was 145 RU.
Work on KRICRR [6mer-2-500] yielded a Binding affinity of 146 RU.
KSYSKK [6mer-2-501] gave a Binding affinity of 144 RU.
Binder KSFCKR [6mer-2-502] has a Binding affinity of 144 RU.
Binder KVQTKK [6mer-2-503] has a Binding affinity of 154 RU.
RGLTRK [6mer-2-504] was tested, and the Binding affinity was 154 RU.
With KRQCKK [6mer-2-505] the Binding affinity was 148 RU.
With KSLLKK [6mer-2-506] the Binding affinity was 135 RU.
RGICKR [6mer-2-507] showed a Binding affinity of 145 RU.
